From PMC9911311

Molecular target: Adeno-associated virus type 2 (AAV2) capsid viral protein VP3 (adeno-associated virus type 2)
Assay: cryo-EM structure

## Adeno-associated virus type 2 (AAV2) capsid viral protein VP3 (natural protein)
  stoichiometry N: 60
